Results published in patent publication US20190211317A1, “PEPTIDES AND NANOPARTICLES FOR INTRACELLULAR DELIVERY OF GENOME-EDITING MOLECULES” (Aadigen, LLC, priority 2016, published 2019).
Non-standard residues stand in square brackets, D forms with d. No end group written: not given here. βAla = NCCC(=O)O

Target: CY5 fluorescently labeled CAS9 protein (S. pyogenes), Q99ZW2
Assay: fluorescence titration of 5 nM CY5-CAS9 with increasing peptide, quadratic fit
Settings: remark: other sources report otherwise

Chain of CY5 fluorescently labeled CAS9 protein (S. pyogenes), Q99ZW2 (Q99ZW2 whole entry): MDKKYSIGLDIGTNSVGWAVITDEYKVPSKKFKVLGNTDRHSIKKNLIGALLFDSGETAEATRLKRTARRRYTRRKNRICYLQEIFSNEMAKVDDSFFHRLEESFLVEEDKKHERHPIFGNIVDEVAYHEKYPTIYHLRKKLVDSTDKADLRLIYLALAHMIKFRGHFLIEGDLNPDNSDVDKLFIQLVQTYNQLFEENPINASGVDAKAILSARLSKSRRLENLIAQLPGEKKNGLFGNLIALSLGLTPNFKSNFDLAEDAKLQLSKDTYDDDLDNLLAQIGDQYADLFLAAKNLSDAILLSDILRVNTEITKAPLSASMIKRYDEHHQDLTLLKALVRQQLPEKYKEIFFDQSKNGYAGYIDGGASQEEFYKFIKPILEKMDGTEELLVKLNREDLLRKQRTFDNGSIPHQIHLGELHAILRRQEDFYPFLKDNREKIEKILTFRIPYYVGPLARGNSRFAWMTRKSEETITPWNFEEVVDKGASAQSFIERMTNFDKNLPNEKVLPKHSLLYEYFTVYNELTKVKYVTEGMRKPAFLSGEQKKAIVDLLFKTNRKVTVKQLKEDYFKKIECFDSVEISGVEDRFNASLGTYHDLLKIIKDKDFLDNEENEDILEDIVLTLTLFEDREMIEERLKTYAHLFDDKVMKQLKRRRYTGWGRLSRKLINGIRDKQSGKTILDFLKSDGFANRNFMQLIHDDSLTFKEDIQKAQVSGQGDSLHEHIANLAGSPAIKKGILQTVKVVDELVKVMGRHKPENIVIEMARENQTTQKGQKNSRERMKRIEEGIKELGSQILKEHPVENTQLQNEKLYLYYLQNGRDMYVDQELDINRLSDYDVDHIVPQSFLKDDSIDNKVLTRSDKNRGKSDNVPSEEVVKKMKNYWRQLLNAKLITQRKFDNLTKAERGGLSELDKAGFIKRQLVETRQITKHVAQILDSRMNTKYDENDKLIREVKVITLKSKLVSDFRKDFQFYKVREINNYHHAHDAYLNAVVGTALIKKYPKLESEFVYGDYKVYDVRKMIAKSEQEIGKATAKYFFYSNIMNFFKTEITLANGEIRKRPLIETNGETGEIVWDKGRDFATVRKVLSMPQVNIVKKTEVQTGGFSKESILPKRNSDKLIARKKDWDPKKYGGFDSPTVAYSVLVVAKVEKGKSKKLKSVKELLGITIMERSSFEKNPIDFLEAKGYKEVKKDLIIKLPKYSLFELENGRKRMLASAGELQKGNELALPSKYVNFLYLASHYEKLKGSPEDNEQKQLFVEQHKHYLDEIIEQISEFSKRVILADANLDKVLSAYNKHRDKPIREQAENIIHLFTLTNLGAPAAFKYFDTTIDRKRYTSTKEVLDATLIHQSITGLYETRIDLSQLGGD

| Binder | Kd [nM] |
| --- | --- |
| GLWRALWRLLRSLWRLLWKV (also: acetate salt) [CADY] | > 100 |
| [βAla]LWRALWRLWRSLWRLLWKA (also: acetate salt) [VEPEP-6] | > 100 |
